# In US20160333065A1 (ACADEMISCH ZIEKENHUIS LEIDEN H O D N LUMC, published 2016):
# B1: PRAME peptide DEALAIAAL (peptide)
# peptide: DEALAIAAL
# notes: also called start 37
# B2: PRAME peptide RELFPPLFM (peptide)
# peptide: RELFPPLFM
# notes: also called start 50
# B3: PRAME peptide RELFPPLFMA (peptide)
# peptide: RELFPPLFMA
# notes: also called start 50
# B4: PRAME peptide LETFKAVL (peptide)
# peptide: LETFKAVL
# notes: also called start 94
# B5: PRAME 89-97 GQHLHLETF (peptide)
# peptide: GQHLHLETF
# B6: PRAME 300-308 ALYVDSLFF (peptide)
# peptide: ALYVDSLFF
# B7: PRAME 316-324 LLRHVMNPL (peptide)
# peptide: LLRHVMNPL
# B8: PRAME 427-436 LQHLIGLSNL (peptide)
# peptide: LQHLIGLSNL
# B9: PRAME peptide LSHIHASSY (peptide)
# peptide: LSHIHASSY
# B10: PRAME peptide YISPEKEEQY (peptide)
# peptide: YISPEKEEQY
# notes: also called start 275
# B11: PRAME peptide FLSLQCLQALY (peptide)
# peptide: FLSLQCLQALY
# notes: also called start 292
# B12: PRAME peptide SLQCLQALY (peptide)
# peptide: SLQCLQALY
# notes: also called start 294
# B13: PRAME peptide CSQLTTLSFY (peptide)
# peptide: CSQLTTLSFY
# notes: also called start 405
# B14: PRAME peptide GTLHLERLAY (peptide)
# peptide: GTLHLERLAY
# notes: also called start 453
# B15: PRAME 36-45 KDEALAIAAL (peptide)
# peptide: KDEALAIAAL
# B16: PRAME 37-45 DEALAIAAL (peptide)
# peptide: DEALAIAAL
# B17: PRAME 50-58 RELFPPLFM (peptide)
# peptide: RELFPPLFM
# B18: PRAME peptide GQHLHLETF (peptide)
# peptide: GQHLHLETF
# notes: also called start 89
# B19: PRAME peptide ALYVDSLFF (peptide)
# peptide: ALYVDSLFF
# notes: also called start 300
# B20: PRAME peptide LLRHVMNPL (peptide)
# peptide: LLRHVMNPL
# notes: also called start 316
# B21: PRAME peptide LQHLIGLSNL (peptide)
# peptide: LQHLIGLSNL
# notes: also called start 427
# B22: PRAME peptide VLYPVPLESY (peptide)
# peptide: VLYPVPLESY
# notes: also called start 439
# B23: PRAME 258-267 QMINLRRLLL (peptide)
# peptide: QMINLRRLLL
# B24: PRAME 259-266 MINLRRLL (peptide)
# peptide: MINLRRLL
# B25: PRAME 260-267 INLRRLLL (peptide)
# peptide: INLRRLLL
# B26: PRAME peptide LPRELFPPL (peptide)
# peptide: LPRELFPPL
# notes: also called start 48
# B27: PRAME peptide LPRELFPPLF (peptide)
# peptide: LPRELFPPLF
# notes: also called start 48
# B28: PRAME peptide FPPLFMAAF (peptide)
# peptide: FPPLFMAAF
# notes: also called start 53
# B29: PRAME peptide QPFIPVEVL (peptide)
# peptide: QPFIPVEVL
# notes: also called start 170
# B30: PRAME peptide IPVEVLVDL (peptide)
# peptide: IPVEVLVDL
# notes: also called start 173
# B31: PRAME peptide GACDELFSY (peptide)
# peptide: GACDELFSY
# notes: also called start 186
# B32: PRAME peptide LPTLAKFSPY (peptide)
# peptide: LPTLAKFSPY
# notes: also called start 246
# B33: PRAME peptide SPYLGQMINL (peptide)
# peptide: SPYLGQMINL
# B34: PRAME peptide EPILCPCFM (peptide)
# peptide: EPILCPCFM
# notes: also called start 499
# B35: PRAME 50-59 RELFPPLFMA (peptide)
# peptide: RELFPPLFMA
# B36: PRAME 94-101 LETFKAVL (peptide)
# peptide: LETFKAVL
# B37: PRAME peptide RLAYLHARLR (peptide)
# peptide: RLAYLHARLR
# notes: also called start 459
# B38: PRAME peptide SMSVWTSPR (peptide)
# peptide: SMSVWTSPR
# notes: also called PRA16-24; start 16
# B39: PRAME peptide CLPLGVLMK (peptide)
# peptide: CLPLGVLMK
# notes: also called start 80
# B40: PRAME peptide CTWKLPTLAK (peptide)
# peptide: CTWKLPTLAK
# notes: also called start 242
# B41: PRAME peptide HLIGLSNLTH (peptide)
# peptide: HLIGLSNLTH
# notes: also called start 429
# B42: PRAME peptide KDEALAIAAL (peptide)
# peptide: KDEALAIAAL
# notes: also called start 36
# B43: PRAME peptide YEDIHGTLHL (peptide)
# peptide: YEDIHGTLHL
# notes: also called start 448
# B44: PRAME peptide QMINLRRLLL (peptide)
# peptide: QMINLRRLLL
# notes: also called start 258
# B45: PRAME peptide MINLRRLL (peptide)
# peptide: MINLRRLL
# notes: also called start 259
# B46: PRAME peptide INLRRLLL (peptide)
# peptide: INLRRLLL
# notes: also called start 260
# B47: PRAME peptide YLHARLREL (peptide)
# peptide: YLHARLREL
# notes: also called start 462
# B48: PRAME 16-24 SMSVWTSPR (peptide)
# peptide: SMSVWTSPR
# notes: also called PRA16-24; PRA(16-24)
# B49: PRAME 80-88 CLPLGVLMK (peptide)
# peptide: CLPLGVLMK
# B50: PRAME 242-251 CTWKLPTLAK (peptide)
# peptide: CTWKLPTLAK
# B51: PRAME 429-438 HLIGLSNLTH (peptide)
# peptide: HLIGLSNLTH
# B52: PRAME 48-56 LPRELFPPL (peptide)
# peptide: LPRELFPPL
# B53: PRAME 48-57 LPRELFPPLF (peptide)
# peptide: LPRELFPPLF
# B54: PRAME 53-61 FPPLFMAAF (peptide)
# peptide: FPPLFMAAF
# B55: PRAME 186-194 GACDELFSY (peptide)
# peptide: GACDELFSY
# B56: PRAME 246-255 LPTLAKFSPY (peptide)
# peptide: LPTLAKFSPY
# B57: PRAME 253-262 SPYLGQMINL (peptide)
# peptide: SPYLGQMINL
# B58: PRAME 267-275 LSHIHASSY (peptide)
# peptide: LSHIHASSY
# B59: PRAME 275-284 YISPEKEEQY (peptide)
# peptide: YISPEKEEQY
# B60: PRAME 292-302 FLSLQCLQALY (peptide)
# peptide: FLSLQCLQALY
# B61: PRAME 294-302 SLQCLQALY (peptide)
# peptide: SLQCLQALY
# B62: PRAME 405-414 CSQLTTLSFY (peptide)
# peptide: CSQLTTLSFY
# B63: PRAME 433-441 … (peptide)
# peptide: LSNLTHVLY
# B64: PRAME 453-462 GTLHLERLAY (peptide)
# peptide: GTLHLERLAY
# Biological target: T1, HLA-B61 (B*4002) (human)
# T1 construct: Acid-stripped B-LCL
# Assay: cell competition vs GEFGGC(FI)GSV, stripped Swei007 B-LCL, FACS
row,Binder,IC50
1,B1,< 1000 nM
2,B2,< 1000 nM
3,B3,< 1000 nM
4,B4,< 1000 nM

# Biological target: T2, HLA-B62 (B*1501) (human)
# T2 construct: HLA class I on acid-stripped EBV-transformed B cells (B-LCL)
# Assay: competition vs YLGEFSC(FI)TY on stripped B-LCL, FACS
row,Binder,IC50
1,B5,2390 nM
2,B6,< 1000 nM
3,B7,2560 nM
4,B8,2410 nM

# Biological target: T3, HLA-A1 (A*0101) (human)
# T3 construct: Acid-stripped B-LCL
# Assay: cell competition vs YLEPAC(FI)AKY, stripped CAA B-LCL, FACS
row,Binder,IC50
1,B9,1000 nM
2,B10,3000 nM
3,B11,1000 nM
4,B12,2000 nM
5,B13,> 1000 nM
6,B14,2000 nM

# Biological target: T4, HLA-B60 (B*4001) (human)
# T4 construct: HLA class I on acid-stripped EBV-transformed B cells (B-LCL)
# Assay: competition vs KESTC(FI)HLVL on stripped B-LCL, FACS
row,Binder,IC50
1,B15,2910 nM
2,B16,1550 nM
3,B17,1480 nM

# Biological target: T5, HLA-B62 (B*1501) (human)
# T5 construct: Acid-stripped B-LCL
# Assay: cell competition vs YLGEFSC(FI)TY, stripped BSM B-LCL, FACS
row,Binder,IC50
1,B18,2390 nM
2,B19,< 1000 nM
3,B20,2560 nM
4,B21,2410 nM
5,B22,1660 nM

# Biological target: T6, HLA-B8 (B*0801) (human)
# T6 construct: HLA class I on acid-stripped EBV-transformed B cells (B-LCL)
# Assay: competition vs FLRGRAC(FI)GL on stripped B-LCL, FACS
row,Binder,IC50
1,B23,1670 nM
2,B24,< 1000 nM
3,B25,< 1000 nM

# Biological target: T7, HLA-B35 (B*3501) (human)
# T7 construct: Acid-stripped B-LCL
# Assay: cell competition vs NPDIVC(FI)YQY, stripped BVR B-LCL, FACS
row,Binder,IC50
1,B26,< 1000 nM
2,B27,1580 nM
3,B28,< 1000 nM
4,B29,2830 nM
5,B30,2240 nM
6,B31,2600 nM
7,B32,< 1000 nM
8,B33,1980 nM
9,B34,< 1000 nM

# Biological target: T8, HLA-B61 (B*4002) (human)
# T8 construct: HLA class I on acid-stripped EBV-transformed B cells (B-LCL)
# Assay: competition vs GEFGGC(FI)GSV on stripped B-LCL, FACS
row,Binder,IC50
1,B16,< 1000 nM
2,B17,< 1000 nM
3,B35,< 1000 nM
4,B36,< 1000 nM

# Biological target: T9, HLA-A3 (A*0301) (human)
# T9 construct: Acid-stripped B-LCL
# Assay: cell competition vs KVFPC(FI)ALINK, stripped EKR B-LCL, FACS
row,Binder,IC50
1,B37,1000 nM
2,B38,< 1000 nM
3,B39,< 1000 nM
4,B40,< 1000 nM
5,B41,4000 nM

# Biological target: T10, HLA-B60 (B*4001) (human)
# T10 construct: Acid-stripped B-LCL
# Assay: cell competition vs KESTC(FI)HLVL, stripped DKB B-LCL, FACS
row,Binder,IC50
1,B42,2910 nM
2,B1,1550 nM
3,B2,1480 nM
4,B43,< 1000 nM

# Biological target: T11, HLA-B8 (B*0801) (human)
# T11 construct: Acid-stripped B-LCL
# Assay: cell competition vs FLRGRAC(FI)GL, stripped Vavy B-LCL, FACS
row,Binder,IC50
1,B44,1670 nM
2,B45,< 1000 nM
3,B46,< 1000 nM
4,B47,< 1000 nM

# Biological target: T12, HLA-A3 (A*0301) (human)
# T12 construct: HLA class I on acid-stripped EBV-transformed B cells (B-LCL)
# Assay: competition vs KVFPC(FI)ALINK on stripped B-LCL, FACS
row,Binder,IC50
1,B48,< 1000 nM
2,B49,< 1000 nM
3,B50,700 nM
4,B51,4000 nM

# Biological target: T13, HLA-B35 (B*3501) (human)
# T13 construct: HLA class I on acid-stripped EBV-transformed B cells (B-LCL)
# Assay: competition vs NPDIVC(FI)YQY on stripped B-LCL, FACS
row,Binder,IC50
1,B52,< 1000 nM
2,B53,1580 nM
3,B54,< 1000 nM
4,B55,2600 nM
5,B56,110 nM
6,B57,1980 nM

# Biological target: T14, HLA-A1 (A*0101) (human)
# T14 construct: HLA class I on acid-stripped EBV-transformed B cells (B-LCL)
# Assay: competition vs YLEPAC(FI)AKY on stripped B-LCL, FACS
row,Binder,IC50
1,B58,1000 nM
2,B59,3000 nM
3,B60,1000 nM
4,B61,2000 nM
5,B62,< 1000 nM

# Biological target: T15, HLA-A1 (A*0101) (human)
# T15 construct: MHC class I molecule on mild-acid-stripped EBV-transformed B cells (CAA)
# Assay: cellular competition binding assay on acid-stripped B-LCL CAA, flow cytometry; competitor Fl-labeled reference peptide YLEPAC(Fl)AKY
row,Binder,IC50
1,B63,< 1000 nM
2,B64,2000 nM
